Test results: patent US20230287096A1 (published 2023)

What was measured:
[1] = target: Recombinant human FAM19A5 protein (human, UniProt Q7Z5A7 44-132); test: ELISA
[2] = target: T1, FAM19A5 epitope fragment F2, conjugated to BSA (human, conjugated to BSA); test: ELISA, BSA-conjugated peptide coated on plate
T1 peptide: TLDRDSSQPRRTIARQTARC
Description: Overlapping peptide fragments (F1-F6, See FIG. 1) of the human FAM19A5 protein were synthesized and conjugated to BSA. Binding of the different anti-FAM19A5 antibodies to the BSA-conjugated peptide fragments F1-F6 was determined by ELISA assay. Briefly, FAM19A5 fragment F1-F6 (diluted to 1 μg/mL in 50 mM carbonate buffer (Biosesang) or to 20 μg/mL for high concentration analysis) were used to coat the wells of 96-well immuno plates (Thermo Scientific) (100 μL/well) overnight at 4° C. and then subsequently washed twice in 1×PBS. The plates were then blocked with the blocking buffer (100 μL/well) for 1 hour at room temperature. During the 1-hour incubation, the relevant anti-FAM19A5 antibodies were diluted to 1 μg/mL (or 20 μg/mL for high concentration analysis) in the diluent buffer. Once the plates were washed (2×using 1×PBS), the diluted anti-FAM19A5 antibodies were added to the appropriate wells, and the plates were incubated at room temperature for 1 hour. The plates were subsequently washed for a total of five times using the washing buffer. […] The absorption value of each of the wells was detected at 492 nm using a 96-well microplate reader (Molecular Device).

F2-01-BSA (#1) = target: T2, F2-01-BSA (#1) (human, conjugated to BSA); test: ELISA, BSA-conjugated mutant F2 peptide coated on plate
T2 construct: also called mutant F2 peptide fragment #1
T2 peptide: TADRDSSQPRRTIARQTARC

F2-02-BSA (#2) = target: T3, F2-02-BSA (#2) (human, conjugated to BSA); test: as above
T3 construct: also called mutant F2 peptide fragment #2
T3 peptide: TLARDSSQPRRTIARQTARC

F2-13-BSA (#13) = target: T4, F2-13-BSA (#13) (human, conjugated to BSA); test: as above
T4 construct: also called mutant F2 peptide fragment #13
T4 peptide: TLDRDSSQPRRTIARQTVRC

F2-04-BSA (#4) = target: T5, F2-04-BSA (#4) (human, conjugated to BSA); test: as above
T5 construct: also called mutant F2 peptide fragment #4
T5 peptide: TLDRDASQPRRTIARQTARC

F2-09-BSA (#9) = target: T6, F2-09-BSA (#9) (human, conjugated to BSA); test: as above
T6 construct: also called mutant F2 peptide fragment #9
T6 peptide: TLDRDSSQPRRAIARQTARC

F2-07-BSA (#7) = target: T7, F2-07-BSA (#7) (human, conjugated to BSA); test: as above
T7 construct: also called mutant F2 peptide fragment #7
T7 peptide: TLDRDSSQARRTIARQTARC

F2-11-BSA (#11) = target: T8, F2-11-BSA (#11) (human, conjugated to BSA); test: as above
T8 construct: also called mutant F2 peptide fragment #11
T8 peptide: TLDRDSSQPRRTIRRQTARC

F2-06-BSA (#6) = target: T9, F2-06-BSA (#6) (human, conjugated to BSA); test: as above
T9 construct: also called mutant F2 peptide fragment #6
T9 peptide: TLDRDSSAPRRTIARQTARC

F2-08-BSA (#8) = target: T10, F2-08-BSA (#8) (human, conjugated to BSA); test: as above
T10 construct: also called mutant F2 peptide fragment #8
T10 peptide: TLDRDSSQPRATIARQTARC

F2-05-BSA (#5) = target: T11, F2-05-BSA (#5) (human, conjugated to BSA); test: as above
T11 construct: also called mutant F2 peptide fragment #5
T11 peptide: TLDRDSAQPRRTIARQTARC

F2-03-BSA (#3) = target: T12, F2-03-BSA (#3) (human, conjugated to BSA); test: as above
T12 construct: also called mutant F2 peptide fragment #3
T12 peptide: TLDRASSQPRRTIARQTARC

F2-10-BSA (#10) = target: T13, F2-10-BSA (#10) (human, conjugated to BSA); test: as above
T13 construct: also called mutant F2 peptide fragment #10
T13 peptide: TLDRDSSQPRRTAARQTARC

F2-12-BSA (#12) = target: T14, F2-12-BSA (#12) (human, conjugated to BSA); test: as above
T14 construct: also called mutant F2 peptide fragment #12
T14 peptide: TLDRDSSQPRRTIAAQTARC

Recombinant human FAM19A5 protein, sequence (Q7Z5A7 other isoform, or with tags, fused parts or gaps): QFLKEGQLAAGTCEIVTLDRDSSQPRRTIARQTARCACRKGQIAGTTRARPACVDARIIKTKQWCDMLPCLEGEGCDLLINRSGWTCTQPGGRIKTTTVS

| Binder | Kd [1] [nM] | binding result [2] | binding result (F2-01-BSA (#1)) | binding result (F2-02-BSA (#2)) | binding result (F2-13-BSA (#13)) | binding result (F2-04-BSA (#4)) | binding result (F2-09-BSA (#9)) | binding result (F2-07-BSA (#7)) | binding result (F2-11-BSA (#11)) | binding result (F2-06-BSA (#6)) | binding result (F2-08-BSA (#8)) | binding result (F2-05-BSA (#5)) | binding result (F2-03-BSA (#3)) | binding result (F2-10-BSA (#10)) | binding result (F2-12-BSA (#12)) |
| --- | --- | --- | --- | --- | --- | --- | --- | --- | --- | --- | --- | --- | --- | --- | --- |
| Anti-FAM19A5 antibody 3-2 (antibody, V domains shown, The text reports the results for '3-2' without separating them, so one molecule is written; Only the variable domains are tied to the name; also called h3-2; m3-2) VH: not shown VL: ALTQPSSVSANPGETVKITCSGGGSYAGSYYYGWYQQKAPGSAPVTLIYESNKRPSDIPSRFSGSTSGSTATLTITGVQADDEAIYYCGSWDSSNGGIFGAGTTLTVL | 0.12 | binds | binds | binds | binds | binds | binds | binds | binds | binds | binds | binds | binds | binds | binds |
| Anti-FAM19A5 antibody 1-28 (antibody, V domains shown, also called Anti-FAM19A5 ("1-28")) VH: AVTLDESGGGLQTPGGALSLVCKASGFDFSDYGMGWVRQAPGKGLEWVAAIRSDGSNPSYGSAVKGRATISKDNGRSTVRLQLNNLRAEDTATYYCAKDGNGYCALDAYRSGGYSCGVYPGSIDAWGHGTEVIVSS VL: ALTQPSSVSANLEGTVEITCSGSGYGYGWYQQKSPGSAPVTVIYQNDKRPSDIPSRFSGSKSGSTGTLTITGVQVEDEAVYYCGSEDSSTLAGIFGAGTTLTVL | 0.17 |  | binds | binds | binds | binds | binds | binds | binds | binds | binds | binds |  | binds | binds |
| Anti-FAM19A5 antibody 1-65 (antibody, V domains shown, VL = 39 to 42)) VH: AVTLDESGGGLQTPGGALSLVCKASGFTFSSYQMGWVRQAPGKGLEWVGVINKSGSDTSYGSAVKGRATISRDNGQSTVRLQLNNLRAEDTGTYFCAKGSASYITAATIDAWGHGTEVIVSS VL: ALTQPSSVSANPGETVKITCSGGGSSGYGYGWYQQKSPSSAPLTVIYWNDKRPSDIPSRFSGSKSGSTHTLTITGVQAEDEAVYFCGNDDYSSDSGYVGVFGAGTTLTVL | 0.1 |  |  |  |  |  |  |  |  |  |  |  |  |  |  |
| Anti-FAM19A5 antibody 2-13 (antibody, V domains shown, Chicken-derived scFv clone converted to a full antibody; also called Anti-FAM19A5 ("2-13")) VH: AVTLDESGGGLQTPGGALSLVCKASGFTFSSHGMFWVRQTPGKGLEYVAEITNDGSGTNYGSAVKGRATISRDNGQSTVRLQLNNLRAEDTGTYFCARSTYECPGGFSCWGDTGQIDAWGHGTEVIVSS VL: ALTQPSSVSANPGETVKITCSGGSYSYGWFQQKSPGSALVTVIYWDDERPSDIPSRFSGALSGSTNTLTITGVQADDEAVYFCGTEDISGTAGVFGAGTTLTVL | ~2.77 |  |  |  |  |  |  |  |  |  |  |  |  |  |  |
